Test results taken from US20230025129A1 (KYMAB, published 2023).

T1: human matriptase-2 ECD protein his tag (human, UniProt Q8IU80 78-811)
T1 construct: also called human MTP-2 ECD; huMTP-2
T1 sequence: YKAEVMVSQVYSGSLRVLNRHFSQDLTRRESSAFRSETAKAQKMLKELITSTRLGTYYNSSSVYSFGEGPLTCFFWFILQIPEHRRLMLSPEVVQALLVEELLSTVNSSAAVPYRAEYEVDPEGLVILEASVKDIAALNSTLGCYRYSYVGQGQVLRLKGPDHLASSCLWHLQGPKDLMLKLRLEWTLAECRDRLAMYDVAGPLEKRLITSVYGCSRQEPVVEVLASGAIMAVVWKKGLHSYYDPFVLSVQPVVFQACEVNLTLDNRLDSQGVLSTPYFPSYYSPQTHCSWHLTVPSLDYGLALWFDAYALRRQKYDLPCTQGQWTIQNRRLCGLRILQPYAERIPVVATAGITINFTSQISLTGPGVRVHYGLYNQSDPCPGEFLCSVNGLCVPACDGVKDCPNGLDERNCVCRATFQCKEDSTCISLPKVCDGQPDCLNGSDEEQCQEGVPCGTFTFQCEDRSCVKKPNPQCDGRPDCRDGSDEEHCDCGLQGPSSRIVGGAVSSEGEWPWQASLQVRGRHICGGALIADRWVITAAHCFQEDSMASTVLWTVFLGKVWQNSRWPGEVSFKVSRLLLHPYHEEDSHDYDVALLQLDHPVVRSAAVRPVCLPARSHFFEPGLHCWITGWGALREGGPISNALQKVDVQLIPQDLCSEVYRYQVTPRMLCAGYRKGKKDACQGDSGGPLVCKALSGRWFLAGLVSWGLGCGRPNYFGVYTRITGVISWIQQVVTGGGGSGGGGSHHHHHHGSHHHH

T2: mouse matriptase-2 ECD protein his tag (mouse, UniProt Q9DBI0 80-811)
T2 sequence: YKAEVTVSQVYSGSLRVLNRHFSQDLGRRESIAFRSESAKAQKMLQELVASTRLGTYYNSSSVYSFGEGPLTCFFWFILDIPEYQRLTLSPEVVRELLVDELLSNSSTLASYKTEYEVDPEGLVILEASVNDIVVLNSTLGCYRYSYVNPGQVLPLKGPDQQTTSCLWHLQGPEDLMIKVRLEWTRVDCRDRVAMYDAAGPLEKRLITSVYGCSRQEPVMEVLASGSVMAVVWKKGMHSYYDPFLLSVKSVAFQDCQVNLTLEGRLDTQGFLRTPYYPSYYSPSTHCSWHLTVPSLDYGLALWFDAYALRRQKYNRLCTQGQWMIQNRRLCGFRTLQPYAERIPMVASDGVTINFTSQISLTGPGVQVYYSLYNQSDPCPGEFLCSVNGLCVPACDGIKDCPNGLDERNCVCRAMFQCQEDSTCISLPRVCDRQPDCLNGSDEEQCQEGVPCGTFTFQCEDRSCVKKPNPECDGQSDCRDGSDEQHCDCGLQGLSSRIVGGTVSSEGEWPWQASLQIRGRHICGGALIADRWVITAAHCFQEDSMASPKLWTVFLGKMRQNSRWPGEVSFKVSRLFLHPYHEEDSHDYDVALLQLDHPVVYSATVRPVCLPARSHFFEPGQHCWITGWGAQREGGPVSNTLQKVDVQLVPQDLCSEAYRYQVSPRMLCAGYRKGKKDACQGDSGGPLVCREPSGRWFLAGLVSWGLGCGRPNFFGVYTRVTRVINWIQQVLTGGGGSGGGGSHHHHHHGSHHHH


How the values were obtained:
[1] = biological target: T1, human matriptase-2 ECD protein his tag; assay: HTRF competition with 647-labelled aprotinin for human MTP-2 protein
Text: Aprotinin is a pan serine protease inhibitor and is known to occupy the active site of serine proteases. A HTRF competition assay against labelled aprotinin confirmed that NORI-003, NORI-006, NORI-008 and NORI-011 were binding at or near this same site and competed with aprotinin for binding to human MTP-2 protein. […] This was confirmed by their lack of competition of aprotinin against moMTP-2 while IC50 values in the enzymatic assay were similar to those of NORI-011. […] FIG. 8. Table L.
Antibodies were titrated into HTRF buffer (DPBS (Gibco—14190144) with 0.1% BSA (Sigma—A7906) and potassium fluoride 0.53M (Sigma—60240-250 G)) at 4× conc with a starting concentration of 200 nM. 5 μL/w of antibodies were added to 384-well white plates (Greiner—784904). Purified proteins of huMTP-2 and moMTP-2 were diluted into HTRF buffer (huMTP-2=40 nM and moMTP-2=240 nM) 4× final conc and plate 5 μL/w. Anti-MTP-2 mAb (NORI-037) in molgG1 backbone was then diluted to 1.2 nM 4× final conc with DELFIA Eu-N1 Rabbit Anti-Mouse-IgG antibody (AD0207) at a 1:1000 dilution 4× final conc in HTRF buffer. Finally, dilute 647-labelled Aprotinin (Sigma—A3428) in HTRF buffer to 20 nM 4× final conc and plate 5 μL/w. Incubate plates for 3 hours or more at RT in the dark. Read plate using HTRF 100 flashes protocol on the EnVision plate reader at 1H 2H and 3H. (Ex: 340 nm Em1: 620 nm Em2: 665 nm).

[2] = biological target: T1, human matriptase-2 ECD protein his tag; assay: cell-based or functional assay
[3] = biological target: T2, mouse matriptase-2 ECD protein his tag; assay: cell-based or functional assay

Row | Binder | IC50 [1] | Inhibition enzymatic activity human MTP2 protein (IC50) [2] | Inhibition enzymatic activity mouse MTP2 protein (IC50) [3]
1 | NORI-011 (antibody, human IgG4 S228P, lambda, human IgG4PE, lambda; NORI-010 with a P124S mutation in the VH domain) heavy: not shown light: QSALTQPPSASGSPGQSVTISCTGTSSDVGFYNFVSWYQQHPDKAPKVMIYEVSKRPSGVPDRFSGSKSGNTASLTVSGLQAEDEADYYCSSYAGSNKVVFGGGTKLTVLGQPKAAPSVTLFPPSSEELQANKATLVCLISDFYPGAVTVAWKADSSPVKAGVETTTPSKQSNNKYAASSYLSLTPEQWKSHRSYSCQVTHEGSTVEKTVAPTECS | 17 nM | 11.4 nM | 9.88 nM
2 | NORI-006 (antibody, human IgG4 S228P, kappa, V domains shown, human IgG4PE, kappa) VH: EVQLVESGGGLIKPGRSLRLSCTGSGFTFGDFGLSWFRQAPGKGLEWISFIRSKPYGGTTDYAASVKGRFTISRDDSKNVAYLQMNSLKTEDTAVYYCARNEILTGYYIFDYWGQGTLVTVSS VL: DIQMTQSPSSLSASLGDRVTITCQASQDINNYLNWYQVQPGKAPKLLIFDASILETGVPSRFSGSGSGTDFSFTISSLQPEDIATYYCQQYDNLPLTFGGGTKVDFKR | 13.9 nM | 1.26 nM | 27.6 nM

Stronger by IC50 [1], values ahead:

Row | IC50 [1] | Inhibition enzymatic activity human MTP2 protein (IC50) [2] | Inhibition enzymatic activity mouse MTP2 protein (IC50) [3] | Binder
3 | 7.28 nM | 1.6 nM | 19 nM | NORI-003 (antibody, human IgG4 S228P, kappa, V domains shown, human IgG4PE, kappa; NORI-002 with the free cysteine of the VH domain mutated (printed as 'C49C')) VH: EVQLVESGGGLVKPGRSLRLSCTGSGFTFGDFGMSWFRQAPGKGLEWVGFIRSKPYGGTTDYAPSVRGRFSISRDDSKGIVYLQMNSLRTEDTAVYYCSRNEILTGYYIFDYWGQGTLVTVSS VL: DIQMTQSPSSLSASLGDRVTITCQASHDITNYLIWYQQKPGKAPRLLIFDASILETGVPSRFSGSGSGTDFTFTISSLQPEDFATYYCQQYYNLPLTFGGGTKVDIKR
4 | 0.256 nM | 0.446 nM | 0.757 nM | NORI-008 (antibody, human IgG4 S228P, kappa, V domains shown, human IgG4PE, kappa, in the in vitro assays; a mouse IgG1 format was used in one in vivo study only; also called NORI-008 hulgG4PE; NORI-008 IgG) VH: QVQLQESGPGLVKPSETLSLTCSVSGGSVSSGRYYWTWIRQPPGKGLEWIGYISNSGNTNYNPSLKSRVTISLDTSKKQFSLSLSAVTAADTAVYYCARGFIYDYWFDPWGQGSLVTVSS VL: DSQMTQSPSSLSASVGDRVTITCQASQDIDNYLNWYQQRPGKAPKLLIYDASKLETGVPSRFSGSGSGTDFTFTISSLQPEDFATYYCQQYGNLPITFGQGTRLDIKR
